Experimental data taken from the nanobody polyreactivity screen of Harvey et al. (2022).

Experiment: yeast display, Sf9 membrane polyspecificity reagent, FACS + sequencing; frameworks hold sequencing errors
How it was run: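 Nanobodies came from a synthetic yeast display library in Saccharomyces cerevisiae BJ5465, induced with galactose for 36–48 hours and stained for 1 hour at 4 °C with 10% biotinylated, detergent-solubilized Sf9 membrane reagent. Cells were enriched on streptavidin microbeads and then FACS-sorted, with low and high (top ~1%) gates set on anti-HA fluorescence for expression and streptavidin fluorescence for reagent binding. Each polyreactivity label reflects the gate a clone came from. Genes were amplified by colony PCR, sequenced by MiSeq 2 × 250 and filtered by CDR length.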

Row | Sequence | polyreactivity (PSR sort gate)
1 | QVQLVESGGGLVQAGGSLRLSCAASGNIFKGYAMGWYRQAPGKERALVAAISKSGGSTYDADSVKGRFTISRDNAKNTVYLQMNSLKPDDTAVYYCNARRKYGGGQTINGYDYWGQGTQVTVSS | high polyreactivity
2 | QVQLVESGGGLVQAGGSLRLSCAASGNIFKVNTMGWYRQAPGKERELVAAINRSGGRPYYADSVKGSFTISRDNAKNTVYLQMNSLKPEDTAVYYCATRVHKSTHGYDYWGQGTQVTVSS | high polyreactivity
3 | QVQLVESGGGLVQAGGSLRLSCAASGNIFLDYAMGWYRQAPGKERELVAANTSRVDDTYYADSVKGRFTISLDNAKNTVYLQMTSLKPEFTAVDYCAADYSVTLLIGGYYWFYAFDYWGQGTQVTVSS | low polyreactivity
4 | QVQLVESGGGLVQAGGSLRLSCAASGNIFLYYAMGWYRQAPGKEMELVAAISWSGSSTYYADSVKGRFTISRDNAKNTVYLQMNSLKPEDTAVYYCNKRATRSRRRGYWGQGTQVTVSS | low polyreactivity
5 | QVQLVESGGGLVQAGGSLRLSCAASGNIFLYYAMGWYRQAPGKERELDADIDSSGASTYYADSVKGRFTISRDNAKNNVYLQMNSLKPEDTAVYYCAAEFHWWYAGYDYGYWGQGTQVTVSS | low polyreactivity
6 | QVQLVESGGGLVQAGGSLRLSCAASGNIFLYYAMGWYRQAPGKERELVADIDSSGASTYYADSVKGRFTISRDNAKNTVYLEMNSLKPEDTAVYYCAAEFHWWYAGYDYGYWGQGTQVTVSS | low polyreactivity
7 | QVQLVESGGGLVQAGGSLRLSCAASGNIFLYYAMGWYRQAPGKERELVADIDSSGASTYYADSVKGRFTISRDNAKNTVYLQMNSLKPEDTAVYYCAARGRKNQRRYGYWGQGTQVTVSS | low polyreactivity
8 | QVQLVESGGGLVQAGGSLRLSCAASGNIFPAYAMGWYRQAPGKERELVATISRRGGGTYYADSVKGRFTISRDNAKNTVYLQMNSLKPEDTAVYYCNVAGWTSAYDYWGQGTQVTVSS | low polyreactivity
9 | QVQLVESGGGLVQAGGSLRLSCAASGNIFRVYDMGWYRQAPGKERELVAVIRWSSGRTYYADSVKGRFTISRDNAKNTVYLQMNSLKPEDTAVYYCATKLWRVPRNSHYDSYEYWGQGTQVTVSS | high polyreactivity
10 | QVQLVESGGGLVQAGGSLRLSCAASGNIFRYYAMGWYRQAPGKERELVARISTGSSTYYADSVKGRFTISRDNAKNTVYLQMNSLKPEDTAVYYCAAANYRYRVPWFYYWGQGTQVTVSS | high polyreactivity
11 | QVQLVESGGGLVQAGGSLRLSCAASGNIFRYYVMGWYRQAPGKEREFVAAITSSGGSTYYADSVKGRFTISRDNAKNTVYLQMNSLKPEDTAVYYCAKDYWDPGWAEYDYWGQGTQVTVSS | low polyreactivity
12 | QVQLVESGGGLVQAGGSLRLSCAASGNIFSYYAMGLYRPAPGKERELVAAIDWNGGTTYYADSVKGRFTISRDNAKNTVYLQMNSLKPEDTAVYYCAAAWYWYWFLFEGAPYDYWGQGTQVTVSS | high polyreactivity
13 | QVQLVESGGGLVQAGGSLRLSCAASGNIFSYYAMGWYRQATGIERELVAAISGRGTRTYYADSVKGRFSISRDNAMNTVYLQMNSLNPEDTAVYYCATEVRRLNEFDYWGQGTQVTVSS | high polyreactivity
14 | QVQLVESGGGLVQAGGSLRLSCAASGNIFTNNAMGWYRQAPGKERELVAAISSSGGRTFYADSVKGRFTITRDNAKNTVNLQMNSLKPEDTSVYYCNKVASTRVSYLDMEYWGQGTQVTVSS | high polyreactivity
15 | QVQLVESGGGLVQAGGSLRLSCAASGNIFTPYTMGWYRQAPGKERELVASINNAGTTKYADSVKGRFTISRDNAKNTVYLQMNSLKPEDTAVYFCAAQRRHALSSYPKHYYWGQGTQVTVSS | low polyreactivity
16 | QVQLVESGGGLVQAGGSLRLSCAASGNIFTYNAMGWYRQAPGKERELVAAISWTADSTYYADSVKGRFTISRDNAKNTVYLQMNSLKPEDTAVYYFAADSQYADYGYWGQGTQVTVSS | high polyreactivity
17 | QVQLVESGGGLVQAGGSLRLSCAASGNIFTYYVMGWYRQAPGKERELVAAISRRGGSTYYADSVKGRFTISRDNAKNTVYLQMNSLKPEDTAVYYCAKKYPRDMDYWGQGTQVTVSS | high polyreactivity
